For assay [1], the target named is plasma von Willebrand factor of type 1 von Willebrand disease patients (human) (UniProt P04275). The experiment in a line: ELISA, coated at 2 µg/ml, plasma of Patient 3 (Type 1). Background: In an ELISA, binding on a coated surface is turned into a signal by an enzyme label.
Assay [2] has the same target. Briefly: ELISA, coated at 2 µg/ml, plasma of Patient 4 (Type 1).
The target is the same in assay [3]. The experiment in a line: ELISA, coated at 2 µg/ml, plasma of Patient 5 (Type 1).
For assay [4], the target named is plasma von Willebrand factor of type 2 von Willebrand disease patients (Table I) (human) (UniProt P04275). Briefly: ELISA, coated at 2 µg/ml, plasma of Patient 6 (Type 2).
For assay [5] the target is unchanged. The experiment in a line: ELISA, coated at 2 µg/ml, plasma of Patient 7 (Type 2).
Assay [6] shares this target. The experiment in a line: ELISA, coated at 2 µg/ml, plasma of Patient 8 (Type 2).
The target in assay [7] is plasma von Willebrand factor of type 1 von Willebrand disease patients (human) (UniProt P04275). Briefly: ELISA, coated at 2 µg/ml, plasma of Patient 3 (Type 1); collagen-binding activity over vWF antigen.
For assay [8] the target is unchanged. The experiment in a line: ELISA, coated at 2 µg/ml, plasma of Patient 4 (Type 1); collagen-binding activity over vWF antigen.
Assay [9] has the same target. Briefly: ELISA, coated at 2 µg/ml, plasma of Patient 5 (Type 1); collagen-binding activity over vWF antigen.
Assay [10] deals with plasma von Willebrand factor of type 2 von Willebrand disease patients (Table I) (human) (UniProt P04275). Briefly: ELISA, coated at 2 µg/ml, plasma of Patient 6 (Type 2); collagen-binding activity over vWF antigen.
Assay [11] shares this target. Briefly: ELISA, coated at 2 µg/ml, plasma of Patient 7 (Type 2); collagen-binding activity over vWF antigen.
For assay [12] the target is unchanged. Briefly: ELISA, coated at 2 µg/ml, plasma of Patient 8 (Type 2); collagen-binding activity over vWF antigen.
For assay [13], the target named is T1, plasma von Willebrand factor of healthy patients / control (reference) plasma (human, UniProt P04275 764-2813).
T1 construct: Unpurified, in diluted plasma; The read-out also depends on the amount of vWF in the plasma; also called Normal; Controls
The experiment in a line: ELISA, coated at 2 µg/ml, plasma of Patient 1 (Normal); collagen-binding activity over vWF antigen. How it is done: (§1) To that end, 100 μl of a solution containing the polypeptide at 2 or 10 μg/ml in phosphate buffer or any other suitable buffer is added in each well and incubated at 22° C. for 18 to 20 hours. After three washes with 200 μl of PBS-0.05% Tween, 200 μl of 1% BSA in phosphate buffer solution (Euromedex, 0.45 μm filter) is added in each well and incubated for 2 hours at room temperature (22° C.). After three washes with 200 μl of PBS-0.05% Tween, 100 μl of various concentrations (expressed in IU/dl) of purified von Willebrand factor (Wilfactin, 100 IU/ml, LFB) and/or of patient plasma diluted in phosphate buffer or any other suitable buffer is incubated for 1.5 hours at room temperature (22° C.). After three new washes, 100 μl of a solution containing a primary anti-vWF antibody coupled with horseradish peroxidase (rabbit anti-human vWF/HRP, DAKO) diluted to 1/8000 in phosphate buffer or any other suitable buffer is incubated for 1 hour at 22° C. and then washed 4 times as described above. 125 μl of tetramethylbenzidine solution (TMB, Sigma) as peroxidase substrate is added and then incubation is carried out in the dark for 10 to a maximum of 45 minutes. The reaction is quenched by adding 125 μl of 2 N HCl (Sigma). Absorbance is quickly measured at 450 nm in a spectrophotometer (Wallac Victor 3). […]

Assay [14] deals with T1, plasma von Willebrand factor of healthy …. Briefly: ELISA, coated at 2 µg/ml, plasma of Patient 2 (Normal); collagen-binding activity over vWF antigen. How it is done:
as §1

For assay [15], the target named is T2, plasma von Willebrand factor of a patient suspected of having anti-vWF antibody (mimicking type III) (human, UniProt P04275 764-2813, limits assumed).
T2 construct: Almost no vWF antigen in this plasma; also called Patient 9; vWF activity
The experiment in a line: ELISA, coated at 2 µg/ml, plasma of Patient 9 (vWF activity); collagen-binding activity over vWF antigen. How it is done:
as §1

Consider “type III collagen (BD Biosciences), used as a reference (from UniProt P02461 154-1221)”, for which the Mean CB % in assay [1] came to 37%; in [2], 24%; in [3], 17%; in [4] it was 17%; in [5], 19%; in [6], 24%. Moreover, the CB/Ag ratio was found to be 0.82 in assay [7]; 1.41 in assay [8]; 0.77 in [9]; 0.74 in assay [10]; 0.48 in assay [11]; 0.89 in assay [12].

B1: type III collagen (BD Biosciences), used as a reference (other, human, UniProt P02461 154-1221, looked up)
chain: QYDSYDVKSGVAVGGLAGYPGPAGPPGPPGPPGTSGHPGSPGSPGYQGPPGEPGQAGPSGPPGPPGAIGPSGPAGKDGESGRPGRPGERGLPGPPGIKGPAGIPGFPGMKGHRGFDGRNGEKGETGAPGLKGENGLPGENGAPGPMGPRGAPGERGRPGLPGAAGARGNDGARGSDGQPGPPGPPGTAGFPGSPGAKGEVGPAGSPGSNGAPGQRGEPGPQGHAGAQGPPGPPGINGSPGGKGEMGPAGIPGAPGLMGARGPPGPAGANGAPGLRGGAGEPGKNGAKGEPGPRGERGEAGIPGVPGAKGEDGKDGSPGEPGANGLPGAAGERGAPGFRGPAGPNGIPGEKGPAGERGAPGPAGPRGAAGEPGRDGVPGGPGMRGMPGSPGGPGSDGKPGPPGSQGESGRPGPPGPSGPRGQPGVMGFPGPKGNDGAPGKNGERGGPGGPGPQGPPGKNGETGPQGPPGPTGPGGDKGDTGPPGPQGLQGLPGTGGPPGENGKPGEPGPKGDAGAPGAPGGKGDAGAPGERGPPGLAGAPGLRGGAGPPGPEGGKGAAGPPGPPGAAGTPGLQGMPGERGGLGSPGPKGDKGEPGGPGADGVPGKDGPRGPTGPIGPPGPAGQPGDKGEGGAPGLPGIAGPRGSPGERGETGPPGPAGFPGAPGQNGEPGGKGERGAPGEKGEGGPPGVAGPPGGSGPAGPPGPQGVKGERGSPGGPGAAGFPGARGLPGPPGSNGNPGPPGPSGSPGKDGPPGPAGNTGAPGSPGVSGPKGDAGQPGEKGSPGAQGPPGAPGPLGIAGITGARGLAGPPGMPGPRGSPGPQGVKGESGKPGANGLSGERGPPGPQGLPGLAGTAGEPGRDGNPGSDGLPGRDGSPGGKGDRGENGSPGAPGAPGHPGPPGPVGPAGKSGDRGESGPAGPAGAPGPAGSRGAPGPQGPRGDKGETGERGAAGIKGHRGFPGNPGAPGSPGPAGQQGAIGSPGPAGPRGPVGPSGPPGKDGTSGHPGPIGPPGPRGNRGERGSEGSPGHPGQPGPPGPPGAPGPCCGGVGAAAIAGIGGEKAGGFAPYYG
notes: also called native type III collagen
In the case of B1, the values for the CB/Ag ratio in assay [13], in [14] and in [15] were 1.4, 1.22 and 0, respectively.
